Measured values from publication PMC7177926, “Spliceosomal Protein Gene BmSPX Regulates Reproductive Organ Development in Bombyx mori”.

Target: MBP-BmPSI (P-element somatic inhibitor) (Bombyx mori, UniProt A8R081 1-703)
Assay: EMSA; RNA dissolved in protein purification buffer, 20 mM Tris, 20 mM NaCl; pH, temperature and EMSA binding details not given
Details: protein: recombinant; tags: N-terminal His6-MBP-TEV; label: biotin at 5' and 3' ends; single strand

Sequence of MBP-BmPSI (P-element somatic inhibitor) (A8R081 entry or part of it): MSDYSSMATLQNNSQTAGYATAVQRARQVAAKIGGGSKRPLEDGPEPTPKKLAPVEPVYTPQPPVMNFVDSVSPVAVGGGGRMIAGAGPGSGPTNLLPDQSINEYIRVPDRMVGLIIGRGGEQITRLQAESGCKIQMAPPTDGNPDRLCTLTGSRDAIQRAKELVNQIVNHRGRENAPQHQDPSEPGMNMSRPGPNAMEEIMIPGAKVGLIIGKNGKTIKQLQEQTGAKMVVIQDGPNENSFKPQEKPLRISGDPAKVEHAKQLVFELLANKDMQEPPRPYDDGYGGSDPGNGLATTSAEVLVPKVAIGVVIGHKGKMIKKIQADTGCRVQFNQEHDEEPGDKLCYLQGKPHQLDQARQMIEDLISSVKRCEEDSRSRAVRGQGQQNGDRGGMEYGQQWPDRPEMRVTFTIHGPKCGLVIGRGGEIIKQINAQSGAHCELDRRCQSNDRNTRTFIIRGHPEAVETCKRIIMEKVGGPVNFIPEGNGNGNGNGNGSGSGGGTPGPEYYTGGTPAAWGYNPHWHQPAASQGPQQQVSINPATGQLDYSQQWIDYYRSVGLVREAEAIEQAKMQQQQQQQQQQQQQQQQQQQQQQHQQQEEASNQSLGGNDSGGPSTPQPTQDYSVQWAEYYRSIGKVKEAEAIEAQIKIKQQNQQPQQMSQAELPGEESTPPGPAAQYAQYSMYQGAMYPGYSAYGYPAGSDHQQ

B1: CE1 RNA probe (ssRNA)
RNA: UUAAUAAUAUAAGUGGUGUA
B1: binds.
